Assay results from PMC7710122.

Legend:
[1] = western blot of β1 in purified sEVs; details: glycan changed form; control: vec-sEVs
[2] = western blot of cell lysates; details: glycan changed form; control: MDA/vec

Substance: integrin β1: MGAT3 overexpression
- localisation_or_trafficking [1]: no change
- expression_or_secretion [2]: no change
